Experimental data published in patent US20190322747A1 (ZHEJIANG TERUISI PHARMACEUTICAL, published 2019).

What was measured:
Test in all cases: ELISA, antigen coated at 5 µg/mL, anti-HA detection, absorbance at 405 nm
[1] = target: T1, CTLA-4 (human) antigen protein, coated (human, UniProt P16410 36-161, limits assumed)
T1 sequence (looked up): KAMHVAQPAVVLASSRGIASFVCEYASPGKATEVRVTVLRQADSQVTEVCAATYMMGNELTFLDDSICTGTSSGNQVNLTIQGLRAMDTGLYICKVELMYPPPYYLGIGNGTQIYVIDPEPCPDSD
Experimental: (§1) (2) The antigen proteins PD-1 (human), PD-1 (monkey), PD-1 (mice), ICOS(human), CTLA-4 (human), CD28 (human), IgG1 (human) were coated overnight at 4° C. with 0.5 μg per well (5 μg/mL, 100 μL), and IgG1 was coated as a control.
(§2) (3) The plates were washed by PBST (×5) next day, and 200 μL 1% BSA was added to block in RT for 2 hours;

[2] = target: T2, PD-1 (mice) antigen protein, coated (mouse, UniProt Q02242 25-167, limits assumed)
T2 construct: also called mouse PD-1
T2 sequence (looked up): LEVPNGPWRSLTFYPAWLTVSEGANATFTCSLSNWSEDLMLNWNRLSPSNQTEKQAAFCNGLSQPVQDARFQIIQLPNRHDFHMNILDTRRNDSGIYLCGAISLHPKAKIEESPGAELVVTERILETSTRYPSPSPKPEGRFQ
Experimental: as §1, §2

[3] = target: CD28 (human) antigen protein, coated (human, UniProt P10747 19-152)
Experimental: as §1, §2

[4] = target: T3, ICOS (human) antigen protein, coated (human, UniProt Q9Y6W8 21-140, limits assumed)
T3 sequence (looked up): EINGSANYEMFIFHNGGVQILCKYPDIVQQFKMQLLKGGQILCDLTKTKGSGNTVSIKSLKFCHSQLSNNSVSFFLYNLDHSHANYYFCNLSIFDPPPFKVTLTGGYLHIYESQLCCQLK
Experimental: as §1, §2

CD28 (human) antigen protein, coated, sequence (P10747 19-152 limits assumed): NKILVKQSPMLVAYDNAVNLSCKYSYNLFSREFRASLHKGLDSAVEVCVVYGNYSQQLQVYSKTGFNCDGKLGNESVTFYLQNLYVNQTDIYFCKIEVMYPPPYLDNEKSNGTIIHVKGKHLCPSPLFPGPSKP

binding result [1]: no binding (tested: 10 µg/mL)
binding result [2]: no binding (tested: 10 µg/mL)
binding result [3]: no binding (tested: 10 µg/mL)
binding result [4]: no binding (tested: 10 µg/mL)
B1: humanized PD-1 nanobody (amino acid sequence SEQ ID NO.: 14) (VHH)
VHH: QVQLQESGGGLVQPGGSLRLSCAASGSTYLRFSMGWFRQVPGKGLEGVAAIGGDGRTSYADSVKGRFTISKDNSKNTLYLDMNSLRAEDTAVYYCAAAVLLDGSFSLLAPLVPYKYDYWGQGTLVTVSS
modifications: biotinylated (Example 9, sites not stated)
notes: also called Nanobody after humanization; humanized nanobody; not shown: HA and His tags from the pMECS vector
